Ends that are not written are not given here.

Sequences and labels used below:
B1: CD40L HIGMS1 mutant H224Y (soluble fragment) (ligand)
chain: QNPQIAAHVISEASSKTTSVLQWAEKGYYTMSNNLVTLENGKQLTVKRQGLYYIYAQVTFCSNREASSQAPFIASLCLKSPGRFERILLRAANTHSSAKPCGQQSIYLGGVFELQPGASVFVNVTDPSQVSHGTGFTSFGLLKL
notes: not shown: His tag from the PET28a vector (Ni-NTA purification, anti-His detection)
B2: CD40L HIGMS1 mutant T176I (soluble fragment) (ligand)
chain: QNPQIAAHVISEASSKTTSVLQWAEKGYYTMSNNLVTLENGKQLTVKRQGLYYIYAQVIFCSNREASSQAPFIASLCLKSPGRFERILLRAANTHSSAKPCGQQSIHLGGVFELQPGASVFVNVTDPSQVSHGTGFTSFGLLKL
notes: Printed as T1761, read as T176I; also called T1761 (so in the source); not shown: His tag from the PET28a vector (Ni-NTA purification, anti-His detection)
B3: CD40L HIGMS1 mutant Q174R (soluble fragment) (ligand)
chain: QNPQIAAHVISEASSKTTSVLQWAEKGYYTMSNNLVTLENGKQLTVKRQGLYYIYARVTFCSNREASSQAPFIASLCLKSPGRFERILLRAANTHSSAKPCGQQSIHLGGVFELQPGASVFVNVTDPSQVSHGTGFTSFGLLKL
notes: as for B1
B4: CD40L HIGMS1 mutant G227V (soluble fragment) (ligand)
chain: QNPQIAAHVISEASSKTTSVLQWAEKGYYTMSNNLVTLENGKQLTVKRQGLYYIYAQVTFCSNREASSQAPFIASLCLKSPGRFERILLRAANTHSSAKPCGQQSIHLGVVFELQPGASVFVNVTDPSQVSHGTGFTSFGLLKL
notes: as for B1
B5: CD40L HIGMS1 mutant L258S (soluble fragment) (ligand)
chain: QNPQIAAHVISEASSKTTSVLQWAEKGYYTMSNNLVTLENGKQLTVKRQGLYYIYAQVTFCSNREASSQAPFIASLCLKSPGRFERILLRAANTHSSAKPCGQQSIHLGGVFELQPGASVFVNVTDPSQVSHGTGFTSFGSLKL
notes: as for B1
B6: CD40L HIGMS1 mutant G226A (soluble fragment) (ligand)
chain: QNPQIAAHVISEASSKTTSVLQWAEKGYYTMSNNLVTLENGKQLTVKRQGLYYIYAQVTFCSNREASSQAPFIASLCLKSPGRFERILLRAANTHSSAKPCGQQSIHLAGVFELQPGASVFVNVTDPSQVSHGTGFTSFGLLKL
notes: as for B1
B7: CD40L G252E mutant (soluble fragment) (ligand)
chain: QNPQIAAHVISEASSKTTSVLQWAEKGYYTMSNNLVTLENGKQLTVKRQGLYYIYAQVTFCSNREASSQAPFIASLCLKSPGRFERILLRAANTHSSAKPCGQQSIHLGGVFELQPGASVFVNVTDPSQVSHGTEFTSFGLLKL
notes: Mutant of the soluble CD40L fragment; also called dnCD40L; CD40L decoy; not shown: His tag from the PET28a vector (Ni-NTA purification, anti-His detection)
B8: CD40L Y170E mutant (soluble fragment) (ligand)
chain: QNPQIAAHVISEASSKTTSVLQWAEKGYYTMSNNLVTLENGKQLTVKRQGLYEIYAQVTFCSNREASSQAPFIASLCLKSPGRFERILLRAANTHSSAKPCGQQSIHLGGVFELQPGASVFVNVTDPSQVSHGTGFTSFGLLKL
notes: Mutant of the soluble CD40L fragment; also called Y170 to E; dnCD40L; not shown: His tag from the PET28a vector (Ni-NTA purification, anti-His detection)
B9: CD40L H224E/G226E mutant (soluble fragment) (ligand)
chain: QNPQIAAHVISEASSKTTSVLQWAEKGYYTMSNNLVTLENGKQLTVKRQGLYYIYAQVTFCSNREASSQAPFIASLCLKSPGRFERILLRAANTHSSAKPCGQQSIELEGVFELQPGASVFVNVTDPSQVSHGTGFTSFGLLKL
notes: as for B7
B10: site 2 peptide of integrin β3 fused to GST (peptide)
chain: QPNDGQSHVGSDNHYSASTTM
modifications: also: fused to GST, order not given here
notes: also called peptide from site 2 of β3; not shown: glutathione S-transferase fusion partner

The target of the first test is T1, CD40 fragment (residues 21-144) fused to GST (UniProt P25942 21-144).
T1 construct: range 21-144; Made in E. coli BL21 from PGEX2T (BamHI/EcoRI), purified on glutathione-sepharose; also called CD40 fused to GST; not shown: glutathione S-transferase encoded by the PGEX2T vector
T1 sequence (P25942 21-144): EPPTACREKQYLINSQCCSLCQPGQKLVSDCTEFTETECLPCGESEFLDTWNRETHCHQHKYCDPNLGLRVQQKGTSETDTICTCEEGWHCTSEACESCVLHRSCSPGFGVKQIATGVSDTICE
Put plainly: ELISA-type CD40 binding (as for FIG. 11).
Turning to B1, the binding result was “binds”.

Take B2: the binding result was “binds”.

With B3, the binding result is recorded as “binds”.

Turning to B4, the binding result was “binds”.

B5: the binding result is “binds”.

For the molecule B6, the binding result was “binds”.

The target in the next test is T1, CD40 fragment (residues 21-144) fused …. The test is described as follows: ELISA-type: immobilized CD40 (21-144)-GST, CD40L mutant in solution. A general note: ELISA stands for enzyme-linked immunosorbent assay.
As to B7, the binding result is recorded as “binds”.

As for B8, the binding result was “binds”.

Consider B9, for which the binding result is on record as “binds”.

The target in a further test is T2, wild-type soluble CD40L fragment (residues 118-261) with no N-terminal KGD motif (human, UniProt P29965 118-261).
T2 construct: also called WT CD40L; WT sCD40L; not shown: His tag from the PET28a vector (Ni-NTA purification, anti-His detection)
T2 sequence: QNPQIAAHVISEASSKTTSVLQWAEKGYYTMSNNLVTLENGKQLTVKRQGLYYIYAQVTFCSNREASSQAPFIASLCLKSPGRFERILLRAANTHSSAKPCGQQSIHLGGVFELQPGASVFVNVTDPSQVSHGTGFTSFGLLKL
Put plainly: ELISA-type: immobilized CD40L, site 2 peptide fused to GST, bound GST measured.
For the molecule B10, the binding result is given as “binds”.

Values taken from patent US20220135649A1 (University of California, published 2022).
